The values that follow come from patent US20030078381A1 (VANDERBILT UNIVERSITY, published 2003).

The target in test [1] is T1, secreted human placental alkaline phosphatase (AP) (human, UniProt P05187 23-511).
T1 construct: Control probe, used as conditioned medium; also called AP control
Kind of test: quantitative cell surface AP binding assay on transfected Cos cells.

Test [2] concerns the target T2, IL-20 receptor (IL-20R1/IL-20R2) heterodimeric receptor on co-transfected cells (human, UniProt Q6UXL0 30-311).
T2 construct: whole, on cells; Both subunits were co-transfected into Cos-E5, BHK or Ba/F3 cells
T2 sequence 1: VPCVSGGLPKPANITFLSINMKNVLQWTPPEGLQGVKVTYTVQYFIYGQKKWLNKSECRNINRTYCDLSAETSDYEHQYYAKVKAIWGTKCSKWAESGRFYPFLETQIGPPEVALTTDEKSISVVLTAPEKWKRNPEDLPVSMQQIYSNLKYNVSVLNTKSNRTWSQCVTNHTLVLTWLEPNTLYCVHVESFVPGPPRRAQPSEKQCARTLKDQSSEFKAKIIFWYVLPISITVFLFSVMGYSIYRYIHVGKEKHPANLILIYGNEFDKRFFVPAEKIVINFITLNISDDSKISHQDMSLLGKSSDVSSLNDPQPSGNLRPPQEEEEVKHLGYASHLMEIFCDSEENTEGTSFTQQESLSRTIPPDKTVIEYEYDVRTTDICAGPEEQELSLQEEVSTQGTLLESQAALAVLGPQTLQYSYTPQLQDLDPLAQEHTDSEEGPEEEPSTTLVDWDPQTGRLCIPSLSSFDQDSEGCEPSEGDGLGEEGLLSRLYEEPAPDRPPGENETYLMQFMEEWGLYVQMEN
T2 sequence 2: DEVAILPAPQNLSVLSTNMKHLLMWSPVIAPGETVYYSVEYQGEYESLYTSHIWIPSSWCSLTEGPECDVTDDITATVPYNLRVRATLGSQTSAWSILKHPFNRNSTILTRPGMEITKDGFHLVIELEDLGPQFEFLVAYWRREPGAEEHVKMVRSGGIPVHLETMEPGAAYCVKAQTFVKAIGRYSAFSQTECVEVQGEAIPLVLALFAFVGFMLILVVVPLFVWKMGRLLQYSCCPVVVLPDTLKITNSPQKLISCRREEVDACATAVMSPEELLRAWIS
Nature of the test: in situ cell surface AP staining of transfected Cos cells. The text has this: (§1) FIG. 3C illustrates cell surface staining assay for the IL-24 receptor binding. Cos-E5 cells transfected with either the IL-20R1, IL-22R1 and IL20R2 expression vector alone or in pairs were stained for the cell surface-bound IL-24-AP activity and viewed under a light microscope (20× magnification) without phase contrast.
(§2) Based on published data and database searches of GenBank (NCBI), only three R1 and two R2 types of the IL-10 family of receptor subunits can be identified. The three R1 subunits are IL-10R1, IL-20R1 and IL-22R1, whereas the two R2 subunits are IL-20R2 and IL-1OR2, the latter of which is also the second receptor subunit for IL-22. Thus, the IL-24 receptor could be a heterodimer of a combination of the known R1 and R2 receptors. […] The quantitative cell surface binding assays were carried out with Cos cells after transfecting plasmids over-expressing IL-10R2, IL-20R1, IL-22R1 and IL-20R2 individually or in all four R1/R2 combinations (FIG. 3B). […] Using AP staining assays, the quantitative IL-24-AP binding data was confirmed (FIG. 3C). Specific cell surface staining was detected with IL-24-AP when Cos cells were transiently transfected with […] (FIG. 3C).

In test [3] the target is T3, IL-22R1/IL-20R2 heterodimeric receptor on co-transfected cells (human, UniProt Q6UXL0 30-311).
T3 construct: whole, on cells; Both subunits were co-transfected into Cos-E5, BHK or Ba/F3 cells; also called IL-24 receptor (IL-22R1/IL-20R2)
T3 sequence 1: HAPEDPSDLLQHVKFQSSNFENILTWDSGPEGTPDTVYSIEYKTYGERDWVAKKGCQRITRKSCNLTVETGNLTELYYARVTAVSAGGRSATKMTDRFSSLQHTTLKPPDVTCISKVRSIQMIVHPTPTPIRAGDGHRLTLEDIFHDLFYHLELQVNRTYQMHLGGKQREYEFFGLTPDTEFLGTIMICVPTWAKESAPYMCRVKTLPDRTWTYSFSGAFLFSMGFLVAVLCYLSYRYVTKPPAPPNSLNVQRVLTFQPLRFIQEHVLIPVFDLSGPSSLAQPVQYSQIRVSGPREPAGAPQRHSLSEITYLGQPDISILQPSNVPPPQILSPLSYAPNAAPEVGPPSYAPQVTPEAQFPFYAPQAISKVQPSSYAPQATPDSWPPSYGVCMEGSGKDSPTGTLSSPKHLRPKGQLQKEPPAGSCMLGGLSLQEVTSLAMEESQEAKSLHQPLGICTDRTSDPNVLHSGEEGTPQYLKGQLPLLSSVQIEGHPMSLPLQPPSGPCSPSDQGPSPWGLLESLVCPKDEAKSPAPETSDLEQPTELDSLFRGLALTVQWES
T3 sequence 2: T2 sequence 2
The description is as above.
Text: as §1, §2

Test [4] has as its target T4, human IL-20R1, expressed alone on transfected cells (human, UniProt Q9UHF4 30-553).
T4 sequence: T2 sequence 1
Nature of the test: quantitative cell surface AP binding assay on transfected Cos cells.

Test [5] addresses T5, human IL-22R1, expressed alone on transfected cells (human, UniProt Q8N6P7 16-574).
T5 sequence: T3 sequence 1
The test is described as above.

T1 sequence (P05187 23-511): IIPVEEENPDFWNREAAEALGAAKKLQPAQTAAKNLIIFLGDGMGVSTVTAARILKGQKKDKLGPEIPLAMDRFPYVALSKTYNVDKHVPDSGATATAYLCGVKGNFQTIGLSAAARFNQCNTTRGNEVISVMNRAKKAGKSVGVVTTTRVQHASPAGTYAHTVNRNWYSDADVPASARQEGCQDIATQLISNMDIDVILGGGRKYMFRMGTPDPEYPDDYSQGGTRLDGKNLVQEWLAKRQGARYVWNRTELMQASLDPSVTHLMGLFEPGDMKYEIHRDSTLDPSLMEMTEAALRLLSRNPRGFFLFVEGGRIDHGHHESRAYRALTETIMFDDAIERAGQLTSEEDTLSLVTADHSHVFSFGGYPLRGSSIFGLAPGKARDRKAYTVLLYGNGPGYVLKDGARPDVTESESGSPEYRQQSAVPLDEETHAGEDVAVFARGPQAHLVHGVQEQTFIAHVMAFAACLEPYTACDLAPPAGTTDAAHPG

B1: human IL-20R2, expressed alone on transfected cells (receptor, UniProt Q6UXL0 30-311, looked up)
chain: T2 sequence 2
notes: whole, on cells
Regarding B1, the binding result in test [1] is reported as “no binding”.

B2: human IL-24-AP fusion protein (ligand, UniProt Q13007 52-206, looked up)
chain: QEFHFGPCQVKGVVPQKLWEAFWAVKDTMQAQDNITSARLLQQEVLQNVSDAESCYLVHTLLEFYLKTVFKNYHNRTVEVRTLKSFSTLANNFVLIVSQLQPSQENEMFSIRDSAHRRFLLFRRAFKQLDVEAALTKALGEVDILLTWMQKFYKL
notes: Used as conditioned medium; also called Mob-5-alkaline phosphatase fusion protein; not shown: secreted human placental alkaline phosphatase (AP)
On to B2, for which the binding result in test [2] is “binds”; in test [3] it was “binds”; in test [4] it was “no binding”; in test [5], “no binding”.
